The test addresses Haemophilus surface fibril (Hsf) putative domain 1 (PD1) (H. influenzae). The test is described as follows: SEC-MALLS; Superdex 200 5/150, buffer C (50 mM Tris, 150 mM NaCl pH 8.0), 0.2 ml/min; LS, dRI and UV detectors; IMAC- and SEC-purified HsfPD1.

The substance “Haemophilus surface fibril (Hsf) putative domain 1 (PD1) (domain or fragment)” registered a stoichiometry N of 3.

For the origin of these results see paper PMC5297931.
